What was measured:
[1] = target: cell surface binding sites on human umbilical vein endothelial cells (HUVECs); test: competition of 20 nM 125I-S100A8/A9 on PAF-activated HUVECs by unlabeled S100A8/A9
[2] = target: [2-3H]mannose-labeled CPAE glycoproteins eluted from mAbGB3.1; test: rebinding to immobilized S100A8/A9 of label eluted from mAbGB3.1 (4,951 cpm added)
[3] = target: [2-3H]mannose-labeled CPAE glycoproteins; test: precipitation of [2-3H]mannose-labeled CPAE glycoproteins by S100A8/A9 on Affigel-10 (10,286 cpm added)
[4] = target: cell surface binding sites on human umbilical vein endothelial cells (HUVECs); test: binding of 125I-S100A8/A9 to unactivated HUVECs (data not shown)
[5] = target: [2-3H]mannose-labeled CPAE glycoproteins eluted from mAbGB3.1; test: rebinding to immobilized S100A8/A9 of label eluted from mAbGB3.1 (1,961 cpm added)
[6] = target: [2-3H]mannose-labeled CPAE glycoproteins; test: precipitation of [2-3H]mannose-labeled CPAE glycoproteins by S100A8/A9 on Affigel-10 (20,386 cpm added)
human S100A9 = target: T1, human S100A9 (human, UniProt P06702 2-114, limits assumed); test: co-purification from human neutrophil cytosol
T1 construct: also called MRP14; MRP9
T1 sequence (looked up): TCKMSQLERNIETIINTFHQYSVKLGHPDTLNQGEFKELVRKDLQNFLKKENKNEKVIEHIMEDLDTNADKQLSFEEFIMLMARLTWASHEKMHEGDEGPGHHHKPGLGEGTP
Excerpt: Chem., 266:7706 [1991]). […] The proteins remained as heteromeric complexes through purification, were even retained on YM10 and YM30 ultrafiltration membranes, and could not be separated into individual proteins without denaturation. The molecular masses of the purified proteins as determined by SDS gels was 11 kDa and 14 kDa for S100A8 and S100A9 respectively (data not shown). […] Binding to BSA coupled asialo-COO⁻ bovine lung glycopeptides immobilized on microtiter plates was inhibited in presence of 0.3 M asialo-COO⁻ glycopeptides, but much less effectively by the asialo-CONHMe-glycopeptides. In FIG. 19, each point is the mean of two determinations.
All steps were carried out at 4° C., unless otherwise indicated. […] Briefly, 100 ml peripheral blood was obtained from healthy volunteers and neutrophils obtained by Ficoll-Hypaque centrifugation as indicated above. The cells were lysed in PBS containing 1 mM DTT, 1% NP40 and protease inhibitors, and subjected to ultracentrifugation at 160,000×g for 30 min. The protein in the supernatant was adjusted to 2 mg/ml with the above buffer, and the solution stirred on ice. Solid ammonium sulfate was slowly added to a final concentration of 75% (w/v) and stirred for 1 h. […] S100A8/A9 proteins eluted at 35-50% acetonitrile, and were >90% pure as determined by SDS gels.

[7] = target: the molecule itself; test: BS3 chemical cross-linking of neutrophil extracts, immunoblot
Description: In these experiments, 96-well plates were coated with 250 ng of BSA coupled […] asialo-COO⁻ lung glycopeptides for 4 h at 37° C. and blocked with 3% BSA in PBS overnight. Human neutrophil extracts were sequentially incubated in each of four wells for 30 min/well at 37° C. in leukocyte activation buffer (described above), in presence or absence of 200 μM […] asialo-COO⁻ glycopeptides or asialo-CONHMe-glycopeptides. After incubation, the supernatants from the incubation wells were collected and protein depletion was analyzed by immunoblotting using the respective antibodies. For detection of S100A8/A9 complexes, the proteins in the supernatants were stabilized by chemical cross-linking using bis-sulfosuccinimidyl suberate (BS³) as known in the art (See, Staros, Biochem., 21:3590 [1982]). Briefly, the cross linker was added from a fresh 2 mM stock solution to neutrophil lysates obtained as described above, to a final concentration of 200 μM, and the mixture was incubated at room temperature for 30 min. Reactions were quenched by the addition of 1 M Tris to a final concentration of 10 mM and samples were stored at −80° C., until they were assayed. Cross-linked samples were incubated with 2-mercaptoethanol prior to separation on SDS-PAGE. Since crude lysates were used in the cross-linking, it is conceivable that non-specific cross-linking could occur. […]

[8] = target: T2, RAGE from bovine lung (native, purified/immunoprecipitated) (bovine, UniProt Q28173 23-416, carries PNGaseF-sensitive carboxylated N-linked oligosaccharides); test: saturation binding of 125I amphoterin to immobilized RAGE in presence of soluble COO- glycopeptides
T2 construct: Released from mAbGB3.1 beads after immunoprecipitation of bovine lung homogenate; also called bovine lung RAGE; bovine RAGE
T2 sequence (looked up): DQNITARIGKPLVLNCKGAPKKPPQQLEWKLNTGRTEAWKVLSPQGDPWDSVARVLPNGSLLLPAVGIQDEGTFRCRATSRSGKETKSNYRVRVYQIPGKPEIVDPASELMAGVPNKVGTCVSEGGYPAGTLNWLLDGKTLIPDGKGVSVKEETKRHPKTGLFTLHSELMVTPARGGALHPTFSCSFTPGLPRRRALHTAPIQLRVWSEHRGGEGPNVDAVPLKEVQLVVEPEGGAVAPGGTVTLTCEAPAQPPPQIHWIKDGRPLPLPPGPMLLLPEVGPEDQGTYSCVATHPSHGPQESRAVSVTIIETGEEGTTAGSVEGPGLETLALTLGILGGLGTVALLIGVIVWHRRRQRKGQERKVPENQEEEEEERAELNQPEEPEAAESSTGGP
Description: (§1) Amphoterin was radioiodinated using Na ¹²⁵I and Iodo-Beads Iodinating Reagent (Pierce) to a specific activity of 5×10³ cpm/ng protein. Saturation binding experiments were done by a slight modification of the method of Hori et al (Hori at al., J. Biol. Chem., 270:25752-61 [1995]). Briefly, purified RAGE was immobilized on microliter wells and the wells blocked with 3% BSA. Wells were incubated at 4° C. overnight with increasing concentrations of ¹²⁵I amphoterin in HBSS containing 0.1% BSA in the presence or absence of desialylated carboxylate-enriched (COO⁻) or CONHMe bovine lung glycopeptides, or 20 μg/ml mAbGB3.1 or an unrelated anti-carbohydrate monoclonal antibody, or 100 fold excess of unlabeled amphoterin. Binding was also tested on RAGE deglycosylated by PNGase F under non-denaturing conditions. Wells were washed, bound amphoterin was eluted with 2 M NaCl, and radioactivity was measured using a gamma counter. Non-linear regression analysis was done using the GraphPad Prism program.
(§2) Specific binding is defined as the total binding minus non-specific binding measured in presence of 100-fold excess of unlabeled amphoterin. The […] binding was 3-4% of total binding. Then, the possibility that amphoterin binding is dependent upon the N-glycans on RAGE was examined.

[9] = target: T3, RAGE deglycosylated by PNGase F (bovine, UniProt Q28173 23-416, N-linked oligosaccharides removed by PNGase F (mass decreased by about 4500 daltons)); test: saturation binding of 125I amphoterin to immobilized RAGE deglycosylated by PNGase F
T3 construct: also called deglycosylated RAGE; PNGase F digested RAGE
T3 sequence (looked up): T2 sequence (looked up)
Description: as §1
The binding of a single concentration of labeled ligand was also tested in presence of various concentrations of COO⁻ or neutral glycopeptides. […] Binding was also found to be reduced in presence of mAbGB3.1, while a non-relevant antibody is ineffective (FIG. 24, Panel C).

[10] = target: T2, RAGE from bovine lung (native, …); test: saturation binding of 125I amphoterin to RAGE immobilized on microtiter wells, non-linear regression
Description: as §1, §2

B1: purified human S100A8/A9 complex from peripheral blood neutrophils (ligand)
chain 1: MLTELEKALNSIIDVYHKYSLIKGNFHAVYRDDLKKLLETECPQYIRKKGADVWFKELDINTDGAVNFQEFLILVIKMGVAAHKKSHEESHKE
chain 2: T1 sequence (looked up)
IC50 [1]: 500 nM
cpm bound to gel [2]: 1570 cpm
cpm bound to gel [3]: 928 cpm
fold less binding to unactivated than to PAF-activated cells [4]: 2 fold
cpm bound to gel [5]: 615 cpm
cpm bound to gel [6]: 1700 cpm

B2: human S100A8 (other, UniProt P05109 1-93, looked up)
chain: B1 chain 1
notes: also called MRP8; CP-10
binding result (human S100A9): binds
binding result [7]: binds

B3: amphoterin (baculovirus expressed rat amphoterin) (ligand, UniProt P63159 2-215, looked up)
chain: GKGDPKKPRGKMSSYAFFVQTCREEHKKKHPDASVNFSEFSKKCSERWKTMSAKEKGKFEDMAKADKARYEREMKTYIPPKGETKKKFKDPNAPKRPPSAFFLFCSEYRPKIKGEHPGLSIGDVAKKLGEMWNNTAADDKQPYEKKAAKLKEKYEKDIAAYRAKGKPDAAKKGVVKAEKSKKKKEEEDDEEDEEDEEEEEEEEDEDEEEDDDDE
modifications: radioiodinated (125I) in the binding assays
notes: the only purified amphoterin in the materials is the baculovirus expressed rat protein; also called recombinant amphoterin
Kd [8]: ~12.6 nM
Kd [9]: ~18.2 nM
Kd [10]: ~10.7 nM

From patent US20100249383A1, “Novel Ligand Involved In The Transmigration Of Leukocytes Across the Endothelium and Uses Therefor” (The Regents of The University of California and The Burnham …, priority 2001, published 2010)
